Values belong to the molecule of their own block, whether it stands above or below them.
How the values were obtained:
plasma ADAMTS13 (human) = plasma ADAMTS13 (human) (UniProt Q76LX8); assay: cell-based or functional assay
FRETS-rVWF71 = biological target: T1, FRETS-rVWF71
T1 chain: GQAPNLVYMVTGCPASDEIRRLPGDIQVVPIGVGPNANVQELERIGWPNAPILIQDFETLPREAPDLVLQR

plasma ADAMTS13 = biological target: T2, plasma ADAMTS13 (human, UniProt Q76LX8 75-1427); assay: Michaelis-Menten kinetics of substrate cleavage by plasma ADAMTS13 (fluorescence)
T2 construct: Not purified; enzyme source was plasma (about 6 nM ADAMTS13 in PNP by a literature value); also called ADAMTS13 in PNP (pooled normal plasma)
T2 sequence (looked up): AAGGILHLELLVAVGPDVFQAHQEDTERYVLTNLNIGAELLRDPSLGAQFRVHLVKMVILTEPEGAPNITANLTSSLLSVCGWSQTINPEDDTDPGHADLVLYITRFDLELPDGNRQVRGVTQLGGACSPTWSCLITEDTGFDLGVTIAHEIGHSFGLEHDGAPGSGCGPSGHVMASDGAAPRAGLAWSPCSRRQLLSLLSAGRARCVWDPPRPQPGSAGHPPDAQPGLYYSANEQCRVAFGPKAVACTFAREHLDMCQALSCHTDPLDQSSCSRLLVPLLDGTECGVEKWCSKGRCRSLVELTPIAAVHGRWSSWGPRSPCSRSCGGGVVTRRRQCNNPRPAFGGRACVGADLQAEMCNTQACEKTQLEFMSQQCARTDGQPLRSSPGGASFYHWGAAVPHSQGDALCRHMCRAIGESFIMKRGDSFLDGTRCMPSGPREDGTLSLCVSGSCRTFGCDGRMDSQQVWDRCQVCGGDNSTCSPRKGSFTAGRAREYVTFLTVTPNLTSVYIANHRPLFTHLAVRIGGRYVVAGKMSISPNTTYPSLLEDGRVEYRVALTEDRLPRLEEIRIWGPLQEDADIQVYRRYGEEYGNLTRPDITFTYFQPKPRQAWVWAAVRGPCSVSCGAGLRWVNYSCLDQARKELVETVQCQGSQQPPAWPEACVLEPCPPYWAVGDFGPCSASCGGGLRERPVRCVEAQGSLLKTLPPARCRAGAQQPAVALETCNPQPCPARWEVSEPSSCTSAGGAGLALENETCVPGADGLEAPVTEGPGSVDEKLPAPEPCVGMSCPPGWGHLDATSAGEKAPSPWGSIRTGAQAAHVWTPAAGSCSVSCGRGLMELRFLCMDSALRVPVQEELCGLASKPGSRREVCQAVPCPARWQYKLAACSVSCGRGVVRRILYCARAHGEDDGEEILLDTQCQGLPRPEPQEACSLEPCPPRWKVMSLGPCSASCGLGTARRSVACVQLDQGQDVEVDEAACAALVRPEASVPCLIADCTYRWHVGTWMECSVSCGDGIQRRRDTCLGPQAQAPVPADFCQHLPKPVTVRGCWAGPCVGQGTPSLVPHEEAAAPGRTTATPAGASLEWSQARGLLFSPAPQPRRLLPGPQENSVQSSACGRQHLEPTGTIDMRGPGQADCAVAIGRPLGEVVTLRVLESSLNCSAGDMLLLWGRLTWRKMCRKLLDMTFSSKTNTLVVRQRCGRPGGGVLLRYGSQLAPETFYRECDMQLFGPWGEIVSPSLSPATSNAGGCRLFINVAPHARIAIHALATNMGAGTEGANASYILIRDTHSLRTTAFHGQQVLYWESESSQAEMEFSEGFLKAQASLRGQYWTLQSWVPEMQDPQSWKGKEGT
Procedure: In these experiments, FRETS-rVWF71 cleavage by plasma ADAMTS13 (50 μL) was assessed in 200 μL reactions containing 50 mM HEPES, pH 7.4, 10 mM CaCl₂, 150 mM NaCl, and 0.05% Tween-20, and varying concentrations of FRETS-rVWF71. The concentration of ADAMTS13 in PNP is ˜1.03 μg/ml (Feys, H. B., et al. J. Thromb. Haemost 4:955-62, 2006), or ˜6 nM for a molecular mass of 170 kDa. For each concentration of substrate, the relationship between product fluorescence and concentration was determined directly by cleaving FRETS-rVWF71 to completion with excess recombinant ADAMTS13 MDTCS (Feys, H. B., et al. J. Thromb. Haemost. 7:2088-95, 2009) and measuring the fluorescence. Control assays contained plasma that was completely deficient in ADAMTS13. The initial velocities (nM/min) as a function of substrate concentration were fitted to the Michealis-Menten equation by nonlinear regression analysis (Prism, GraphPad).

IC50 of inhibition of ADAMTS13 activity (FRETS-rVWF71 cleavage) (plasma ADAMTS13 (human)): 10 to 15 mg/mL
Molecule: Hemoglobin (from UniProt P69905 2-142; P68871 2-147)

B1: plasma ADAMTS13 (protein)
chain: AAGGILHLELLVAVGPDVFQAHQEDTERYVLTNLNIGAELLRDPSLGAQFRVHLVKMVILTEPEGAPNITANLTSSLLSVCGWSQTINPEDDTDPGHADLVLYITRFDLELPDGNRQVRGVTQLGGACSPTWSCLITEDTGFDLGVTIAHEIGHSFGLEHDGAPGSGCGPSGHVMASDGAAPRAGLAWSPCSRRQLLSLLSAGRARCVWDPPRPQPGSAGHPPDAQPGLYYSANEQCRVAFGPKAVACTFAREHLDMCQALSCHTDPLDQSSCSRLLVPLLDGTECGVEKWCSKGRCRSLVELTPIAAVHGRWSSWGPRSPCSRSCGGGVVTRRRQCNNPRPAFGGRACVGADLQAEMCNTQACEKTQLEFMSQQCARTDGQPLRSSPGGASFYHWGAAVPHSQGDALCRHMCRAIGESFIMKRGDSFLDGTRCMPSGPREDGTLSLCVSGSCRTFGCDGRMDSQQVWDRCQVCGGDNSTCSPRKGSFTAGRAREYVTFLTVTPNLTSVYIANHRPLFTHLAVRIGGRYVVAGKMSISPNTTYPSLLEDGRVEYRVALTEDRLPRLEEIRIWGPLQEDADIQVYRRYGEEYGNLTRPDITFTYFQPKPRQAWVWAAVRGPCSVSCGAGLRWVNYSCLDQARKELVETVQCQGSQQPPAWPEACVLEPCPPYWAVGDFGPCSASCGGGLRERPVRCVEAQGSLLKTLPPARCRAGAQQPAVALETCNPQPCPARWEVSEPSSCTSAGGAGLALENETCVPGADGLEAPVTEGPGSVDEKLPAPEPCVGMSCPPGWGHLDATSAGEKAPSPWGSIRTGAQAAHVWTPAAGSCSVSCGRGLMELRFLCMDSALRVPVQEELCGLASKPGSRREVCQAVPCPARWQYKLAACSVSCGRGVVRRILYCARAHGEDDGEEILLDTQCQGLPRPEPQEACSLEPCPPRWKVMSLGPCSASCGLGTARRSVACVQLDQGQDVEVDEAACAALVRPEASVPCLIADCTYRWHVGTWMECSVSCGDGIQRRRDTCLGPQAQAPVPADFCQHLPKPVTVRGCWAGPCVGQGTPSLVPHEEAAAPGRTTATPAGASLEWSQARGLLFSPAPQPRRLLPGPQENSVQSSACGRQHLEPTGTIDMRGPGQADCAVAIGRPLGEVVTLRVLESSLNCSAGDMLLLWGRLTWRKMCRKLLDMTFSSKTNTLVVRQRCGRPGGGVLLRYGSQLAPETFYRECDMQLFGPWGEIVSPSLSPATSNAGGCRLFINVAPHARIAIHALATNMGAGTEGANASYILIRDTHSLRTTAFHGQQVLYWESESSQAEMEFSEGFLKAQASLRGQYWTLQSWVPEMQDPQSWKGKEGT
Km (FRETS-rVWF71): Km of 1.8 µM
kcat (FRETS-rVWF71): kcat of 6.8 min^-1 at 30 °C

B2: recombinant ADAMTS13 MDTCS (protein)
chain: AAGGILHLELLVAVGPDVFQAHQEDTERYVLTNLNIGAELLRDPSLGAQFRVHLVKMVILTEPEGAPNITANLTSSLLSVCGWSQTINPEDDTDPGHADLVLYITRFDLELPDGNRQVRGVTQLGGACSPTWSCLITEDTGFDLGVTIAHEIGHSFGLEHDGAPGSGCGPSGHVMASDGAAPRAGLAWSPCSRRQLLSLLSAGRARCVWDPPRPQPGSAGHPPDAQPGLYYSANEQCRVAFGPKAVACTFAREHLDMCQALSCHTDPLDQSSCSRLLVPLLDGTECGVEKWCSKGRCRSLVELTPIAAVHGRWSSWGPRSPCSRSCGGGVVTRRRQCNNPRPAFGGRACVGADLQAEMCNTQACEKTQLEFMSQQCARTDGQPLRSSPGGASFYHWGAAVPHSQGDALCRHMCRAIGESFIMKRGDSFLDGTRCMPSGPREDGTLSLCVSGSCRTFGCDGRMDSQQVWDRCQVCGGDNSTCSPRKGSFTAGRAREYVTFLTVTPNLTSVYIANHRPLFTHLAVRIGGRYVVAGKMSISPNTTYPSLLEDGRVEYRVALTEDRLPRLEEIRIWGPLQEDADIQVYRRYGEEYGNLTRPDITFTYFQPKPRQA
cleavage of the substrate (fluorescence) (FRETS-rVWF71): cleaving FRETS-rVWF71 to completion with excess recombinant ADAMTS13 MDTCS

binding result (plasma ADAMTS13): binds
B3: FRETS-rVWF71 (peptide)
peptide: GQAPNLVYMVTGCPASDEIRRLPGDIQVVPIGVGPNANVQELERIGWPNAPILIQDFETLPREAPDLVLQR
modifications: Cys1610 modified with DyLight 633 (maleimide); N-terminal Gly modified with IRDye QC-1 (N-hydroxysuccinimidyl ester)
notes: Fluorogenic substrate; Recombinant peptide rVWF71 (extra N-terminal Gly = E1598G, N1610C, K1617R) labelled with fluorophore and quencher; also called VWF-rFRETS71; doubly-labeled substrate
